# Test results from patent US20190330296A1 (Janssen / Centocor, published 2019).
# Changes are numbered by the printed parent chain. “And” between values parts separate entries of the source, which are not always exact repeats. Equal values may be shown once.
# T1: human neuropeptide Y2 receptor (human, UniProt P49146 1-381)
# T1 sequence (looked up): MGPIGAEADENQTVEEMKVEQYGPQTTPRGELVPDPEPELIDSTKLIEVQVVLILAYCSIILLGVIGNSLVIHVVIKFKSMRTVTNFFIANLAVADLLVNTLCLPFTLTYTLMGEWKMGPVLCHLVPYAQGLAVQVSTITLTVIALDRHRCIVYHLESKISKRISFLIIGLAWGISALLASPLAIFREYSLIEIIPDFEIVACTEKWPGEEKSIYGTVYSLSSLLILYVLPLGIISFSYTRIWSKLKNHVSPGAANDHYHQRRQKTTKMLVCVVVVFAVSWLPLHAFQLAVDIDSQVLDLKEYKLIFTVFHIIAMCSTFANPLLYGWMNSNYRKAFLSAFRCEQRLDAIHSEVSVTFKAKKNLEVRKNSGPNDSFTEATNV
# B1: GLP-1 fusion peptide GF27 (SEQ ID NO:139) (Fc fusion)
# chain: HGEGTFTSDVSSYLEEQAAKEFIAWLVKGGGAPAPAPAPAPAPAPAPAPAPAPAPAGPPCPPCPAPEAAGGPSVFLFPPKPKDTLMISRTPEVTCVVVDVSQEDPEVQFNWYVDGVEVHNAKTKPREEQFNSTYRVVSVLTVLHQDWLNGKEYKCKVSNKGLPSSIEKTISKAKGQPREPQVYTLPPSQEEMTKNQVSLTCLVKGFYPSDIAVEWESNGQPENNYKTTPPVLDSDGSFFLYSRLTVDKSRWQEGNVFSCSVMHEALHNHYTQKSLSLSLGAPAPAPAPAPAPCPEEP
# B2: GLP-1 fusion peptide GF41 (SEQ ID NO:153) (Fc fusion)
# chain: HGEGTFTSDVSSYLEEQAAKEFIAWLVKGGGASGGGGSGGGGSGGGGSGGGGSCPPCPAPEAAGGPSVFLFPPKPKDTLMISRTPEVTCVVVDVSQEDPEVQFNWYVDGVEVHNAKTKPREEQFNSTYRVVSVLTVLHQDWLNGKEYKCKVSNKGLPSSIEKTISKAKGQPREPQVYTLPPSQEEMTKNQVSLTCLVKGFYPSDIAVEWESNGQPENNYKTTPPVLDSDGSFFLYSRLTVDKSRWQEGNVFSCSVMHEALHNHYTQKSLSLSLGKASGSAPAPAPEEEPCA
# B3: GLP-1 fusion peptide GF40 (SEQ ID NO:152) (Fc fusion)
# chain: HGEGTFTSDVSSYLEEQAAKEFIAWLVKGGGASGGGGSGGGGSCPPCPAPEAAGGPSVFLFPPKPKDTLMISRTPEVTCVVVDVSQEDPEVQFNWYVDGVEVHNAKTKPREEQFNSTYRVVSVLTVLHQDWLNGKEYKCKVSNKGLPSSIEKTISKAKGQPREPQVYTLPPSQEEMTKNQVSLTCLVKGFYPSDIAVEWESNGQPENNYKTTPPVLDSDGSFFLYSRLTVDKSRWQEGNVFSCSVMHEALHNHYTQKSLSLSLGKASGSAPAPAPEEEPCA
# B4: GLP-1 fusion peptide coupled cyclic PYY peptide conjugate SEQ ID NO:250 (Fc fusion)
# chain: B3 chain
# peptide: GISPEAPGEKASPEELNRYYASLRHYLNEVTRQRY
# modifications: [cyclo-(G2-E30), S4, K(AcBr)11, psi-(R35,Y36)]-PYY2-36; Br displaced on conjugation to the linker Cys; C-terminal amide; Cys of the second linker peptide thioether-linked to the Lys11 side chain of the cyclic PYY peptide
# B5: GLP-1 fusion peptide coupled cyclic PYY peptide conjugate SEQ ID NO:248 (Fc fusion)
# chain: B3 chain
# peptide: B4 peptide with E29C
# modifications: [cyclo-(G2-COCH2-C30), K(AcBr)11, N-Me-R35]-PYY2-36; Br displaced on conjugation to the linker Cys; C-terminal amide; Cys of the second linker peptide thioether-linked to the Lys11 side chain of the cyclic PYY peptide
# B6: GLP-1 fusion peptide coupled cyclic PYY peptide conjugate SEQ ID NO:249 (Fc fusion)
# chain: B3 chain
# peptide: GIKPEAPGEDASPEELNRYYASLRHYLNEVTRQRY
# modifications: [cyclo-(G2-E30), S4, K(AcBr)11, N-Me-R35]-PYY2-36; Br displaced on conjugation to the linker Cys; C-terminal amide; Cys of the second linker peptide thioether-linked to the Lys11 side chain of the cyclic PYY peptide
# B7: GLP-1 fusion peptide GF54 (SEQ ID NO:166) (Fc fusion)
# chain: HGEGTFTSDVSSYLEEQAAKEFIAWLVKGGGASAPAPAPAPAPAPAPAPAPAPGSCPPCPAPEAAGGPSVFLFPPKPKDTLMISRTPEVTCVVVDVSQEDPEVQFNWYVDGVEVHNAKTKPREEQFNSTYRVVSVLTVLHQDWLNGKEYKCKVSNKGLPSSIEKTISKAKGQPREPQVYTLPPSQEEMTKNQVSLTCLVKGFYPSDIAVEWESNGQPENNYKTTPPVLDSDGSFFLYSRLTVDKSRWQEGNVFSCSVMHEALHNHYTQKSLSLSLGKASGSAPAPAPEEEPCA
# B8: GLP-1 fusion peptide coupled cyclic PYY peptide conjugate SEQ ID NO:239 (Fc fusion)
# chain: B7 chain
# peptide: B4 peptide with E29C
# modifications: [cyclo-(G2-COCH2-C30), K(AcBr)11, N-Me-R35]-PYY2-36; Br displaced on conjugation to the linker Cys; C-terminal amide; Cys of the second linker peptide thioether-linked to the Lys11 side chain of the cyclic PYY peptide
# Target: human GLP-1 receptor (human, UniProt P43220 24-463)
# Experiment: cell-based or functional assay
# human GLP-1 receptor, sequence (P43220 24-463): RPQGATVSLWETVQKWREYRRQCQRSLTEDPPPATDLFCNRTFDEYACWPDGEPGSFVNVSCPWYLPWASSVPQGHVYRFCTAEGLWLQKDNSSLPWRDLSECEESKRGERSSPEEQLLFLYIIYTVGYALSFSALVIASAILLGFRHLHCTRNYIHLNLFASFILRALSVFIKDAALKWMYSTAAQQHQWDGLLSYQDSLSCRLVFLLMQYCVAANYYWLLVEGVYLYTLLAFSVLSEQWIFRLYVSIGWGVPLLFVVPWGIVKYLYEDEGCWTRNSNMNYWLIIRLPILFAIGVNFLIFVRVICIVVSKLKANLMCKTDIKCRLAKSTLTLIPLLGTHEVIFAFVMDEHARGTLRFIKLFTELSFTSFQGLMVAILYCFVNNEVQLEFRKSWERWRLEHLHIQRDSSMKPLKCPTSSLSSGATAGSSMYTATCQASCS
row,Human GLP1R EC50,Binder
1,0.054 nM,B1
2,0.049 nM,B2
3,0.207 nM,B3
4,0.213 nM,B4
5,0.264 nM,B5
6,0.148 nM,B6
7,0.035 nM and 0.053 nM,B7
8,0.042 nM,B8

# Target: T1, human neuropeptide Y2 receptor
# Experiment: cell-based or functional assay
row,Human Y2R EC50,Binder
1,0.01 nM,B4
2,0.018 nM,B5
3,0.143 nM,B6
4,0.006 nM,B8
